Test results taken from patent US20120213799A1 (EISAI R AND D MANAGEMENT, published 2012).
Where a chain is given by its changes, count along the chain named. One block for each binder: values may come before it.

Tests used:
[1] = molecular target: T1, soluble hFKN-SEAP (extracellular region of human fractalkine conjugated to secreted alkaline phosphatase) (human, UniProt P78423 25-341); assay: BIACORE, mAb captured on Protein-A/G, soluble FKN-SEAP as analyte (also ELISA on captured hFKN-SEAP)
T1 construct: Used as culture supernatant of HEK293E cells; also called soluble FKN conjugated to SEAP; not shown: secreted alkaline phosphatase (SEAP) from the vector pcDNA3.1 (+) dSalI SEAP
T1 sequence: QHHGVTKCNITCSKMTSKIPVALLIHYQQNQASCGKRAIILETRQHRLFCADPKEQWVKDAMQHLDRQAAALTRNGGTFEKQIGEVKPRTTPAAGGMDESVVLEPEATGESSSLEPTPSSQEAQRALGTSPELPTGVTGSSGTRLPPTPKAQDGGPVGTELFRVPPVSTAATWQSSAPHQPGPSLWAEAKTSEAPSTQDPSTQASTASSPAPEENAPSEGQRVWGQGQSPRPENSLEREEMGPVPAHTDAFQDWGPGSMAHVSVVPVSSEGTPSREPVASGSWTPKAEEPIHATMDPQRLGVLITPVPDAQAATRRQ
Method: (§1) BIACORE® assays were performed as follows. Recombinant Protein-A/G (Pierce Chemical) was immobilized on BIACORE® sensor chips (CM5) that were pre-activated with amine coupling reagents (GE Healthcare). Purified mAbs were added into the sensor chips at a concentration of 0.2 μg/ml. Soluble antigens (soluble FKN conjugated to secreted alkaline phosphatase (SEAP) or control SEAP proteins) were added into the sensor chips at various concentrations (0 to 200 nM). Association of added antigens with mAbs captured on the sensor chips was monitored continuously, and the relative binding response of the antigens was determined using a BIACORE® A100 system (GE Healthcare).
ELISAs were performed as follows. Polyclonal anti-rabbit IgG antibody (Jackson ImmunoResearch Laboratories, Catalog No. 711-005-152) was coated on the wells of a 96-well plate (Nunc, Catalog No. 442402). After overnight incubation at 4° C., the wells were blocked with 1× Block-Ace (DainipponPharma) for 1 hour at room temperature. After washing three times with 0.05% Tween 20/PBS, 10 nM rabbit polyclonal anti-PLAP antibody (Biomeda) was added to the wells (50 μl/well). […] An equal volume of stopping solution (2 M H₂SO₄) was added to the wells and the optical density at 450 nm was read by a microplate reader (Arvo, PerkinElmer).

[2] = molecular target: T1, soluble hFKN-SEAP (extracellular region …); assay: BIACORE, mAb captured by anti-human IgG, FKN-SEAP as analyte
Method: as §1
The BIACORE® assays were performed as described above. However, for humanized and chimeric mAbs, anti-human IgG mouse mAb (GE Healthcare) was used as the capturing antibody on the sensor chip.

[3] = molecular target: T2, recombinant human FKN (R&D Systems, Catalog No. 362-CX/CF) (human, UniProt P78423 25-100); assay: cell-based or functional assay
T2 sequence: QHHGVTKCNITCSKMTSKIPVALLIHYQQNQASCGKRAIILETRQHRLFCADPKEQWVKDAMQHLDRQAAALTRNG

[4] = molecular target: T3, R68A mutated FKN-SEAP-His (human, UniProt P78423 25-340); assay: sandwich ELISA, H3-2L4 coated, mutant hFKN-SEAP added, alkaline phosphatase read at 405 nm
T3 construct: also called R68A mutant; not shown: The SEAP reporter, the residues encoded by the NotI junction and the C-terminal (His)10 tag
T3 sequence: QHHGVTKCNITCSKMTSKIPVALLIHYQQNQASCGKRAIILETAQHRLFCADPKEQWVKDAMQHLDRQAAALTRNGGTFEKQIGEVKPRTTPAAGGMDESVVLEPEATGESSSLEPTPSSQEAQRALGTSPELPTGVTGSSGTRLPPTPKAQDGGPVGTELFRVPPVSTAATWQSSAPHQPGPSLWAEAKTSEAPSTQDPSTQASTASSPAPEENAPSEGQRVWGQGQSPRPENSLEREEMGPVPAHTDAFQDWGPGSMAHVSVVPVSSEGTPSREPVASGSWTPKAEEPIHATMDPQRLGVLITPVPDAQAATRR
Method: Mouse anti-human FKN monoclonal antibodies (1F3, 1G1, 2B2, 3D5, 6D1, 7F6) and H3-2L4 antibody were coated on an ELISA plate (Nunc) overnight at 4° C. The antibody solutions were removed. PBS solution containing 1% BSA was added to each well and incubated for 1 hour at room temperature, and the wells were washed with Tris-buffered saline (pH 7.4) containing 0.05% Tween 20. The wild type and R68A mutated FKN-SEAP-His solution (1, 0.5, 0.25, 0.125 nM) were added to the wells and incubated for 2 hours at room temperature. The antigen solutions were removed and washed with washing solution. p-Nitrophenyl phosphate solution (Thermo Scientific) was added to each well and incubated for 30 minutes at room temperature. The reaction was terminated with 1N NaOH solution and absorbance at 405 nm was measured.

- binding result [1]: binds
B1: mouse anti-hFKN mAb clone 3A5-2 (antibody, mouse IgG2a, V domains shown)
VH: QVQLQQSGPELVKPGASVKMSCKASGYTFTNYYIHWVKQRPGQGLEWIGWIYPGDGSPKFNERFKGKTTLTADKSSNTAYMLLSSLTSEDSAIYFCATGPTDGDYFDYWGQGTTLTVSS
VL: DIQMTQSPASLSASVGETVTITCRASGNIHNFLAWYQQKQGKSPQFLVYNEKTLADGVPSRFSGSGSGTQYSLKINSLQPEDFGIYFCQQFWSTPYTFGGGTKLEIK
notes: Mouse monoclonal from hybridoma; Heavy chain was amplified with a mouse IgG2a CH3 primer and light chain with a mouse Ckappa primer; also called m3A5-2; m3A5-2 mAb

- binding result [2]: binds
B2: mouse-human chimeric 3A5-2 mAb (antibody, human IgG2, V domains shown)
VH: B1 VH
VL: B1 VL
notes: also called chimeric mAb

- CTX (IC50, nM) [3]: 0.2 nM
- binding result [4]: no binding (tested: 0.13 nM)
B3: humanized anti-hFKN mAb H3-2L4-IgG2 (antibody, V domains shown)
VH: QVQLVQSGAEVKKPGASVKVSCKASGYTFTNYYIHWVKQAPGQGLEWIGWIYPGDGSPKFNERFKGRTTLTADKSTNTAYMLLSSLRSEDTAVYFCATGPTDGDYFDYWGQGTTVTVSS
VL: DIQMTQSPSSLSASVGDRVTITCRASGNIHNFLAWYQQKPGKAPKLLIYNEKTLADGVPSRFSGSGSGTDYTLTISSLQPEDFATYFCQQFWSTPYTFGGGTKVEIK
notes: also called H3-2L4 antibody

- binding result [2]: binds
B4: humanized anti-hFKN mAb H3-2L2-IgG2 (antibody, V domains shown)
VH: B3 VH
VL: B3 VL with L46F, I48V, D70Q

- binding result [2]: binds
B5: humanized anti-hFKN mAb H3-L4-IgG2 (antibody, V domains shown)
VH: B3 VH with E89D
VL: B3 VL

- binding result [2]: binds
B6: humanized anti-hFKN mAb H3L2-IgG2 (antibody, V domains shown)
VH: B3 VH with E89D
VL: B3 VL with L46F, I48V, D70Q
